This passage reports Km, kcat and kcat/Km results from PMC2722939.

This series concerns O=P(O)(O)O[C@@H]1O[C@H](CO)[C@@H](O)[C@H](O)[C@H]1O. The series can be described thus: purified protein. Particulars: 5 μM βG1,6bisP, 2 mM MgCl2, 50 mM K+HEPES pH 7.0, 25 °C.
With “L. lactis β-PGM (wild type) (Lactococcus lactis subsp. lactis Il1403)”, the Km (commonly the concentration of substrate that gives half-maximal velocity) worked out at 31 ± 2 µM; the kcat (usually the number of substrate molecules converted per active site and unit of time at saturation) is 175 s⁻¹; the kcat/Km (usually the turnover number divided by the Michaelis constant) is 6e+06 M⁻¹ s⁻¹.
On to “L. lactis β-PGM (wild type) (Lactococcus lactis subsp. lactis Il1403; H20A)”, for which the Km came out at 41 ± 3 µM, the turnover number (kcat) was found to be 0.026 s⁻¹ and the kcat/Km is 600 M⁻¹ s⁻¹.
On to “L. lactis β-PGM (wild type) (Lactococcus lactis subsp. lactis Il1403; H20N)”, for which the Km was 170 ± 10 µM, the kcat came to 0.62 s⁻¹ and the catalytic efficiency (kcat/Km) turned out to be 4000 M⁻¹ s⁻¹.
The matching figures for “L. lactis β-PGM (wild type) (Lactococcus lactis subsp. lactis Il1403; H20Q)”: 45 ± 1 µM, 21.9 s⁻¹ and 500000 M⁻¹ s⁻¹.
For “L. lactis β-PGM (wild type) (Lactococcus lactis subsp. lactis Il1403; K76A)”, in that order: 66 ± 1 µM, 1.56 s⁻¹ and 20000 M⁻¹ s⁻¹.
“L. lactis β-PGM (wild type) (Lactococcus lactis subsp. lactis Il1403; T16P)”: the Km is 4.8 ± 0.3 µM, the kcat turned out to be 0.026 s⁻¹ and the specificity constant (kcat/Km) turned out to be 5000 M⁻¹ s⁻¹.
